Assay results taken from patent publication US20240150797A1, “BIOCATALYTICAL PRODUCTION OF DIHYDROCHALCONES” (Symrise AG, priority 2021, published 2024).

Experiments:
Type in all cases: biochemical
Settings in all cases: purified CHI in 50 mM PBS, 100 μM substrate, 25° C.
[1] = Specific activity of purified CHI, absorbance decrease at 384 nm, hesperetin chalcone
Protocol: (§1) E. coli BL21 (DE3) cells containing one of the pET28b plasmids from Table 2 or Table 3 were used to inoculate 1 L LB medium at OD of 0.1. Cells were incubated at 37° C., 250 rpm until the OD reached 0.4-0.6 and induced by supplementing with 0.1 mM IPTG. After protein expression at 28° C., 250 rpm for 16 h, the cells were harvested by centrifugation at 4,000×g for 15 min. The harvested cells were lysed with 0.5 mg/mL lysozyme (Sigma-Aldrich), 0.4 U/mL Benzonase (Sigma-Aldrich) and BugBuster (Merck) at room temperature for 0.5 h to obtain a crude cell extract. The crude extract was centrifuged at 10,000×g for 30 min to remove the pellet. Recombinant proteins were purified by Ni-affinity chromatography (GE Healthcare). The supernatant of the crude extract was loaded on the column with 20 mM imidazole. The column was washed by 5 column volumes of 30 mM imidazole with 20 mM PBS (pH 7.4) and 500 mM NaCl. The target proteins were eluted by 150 mM imidazole with 20 mM PBS (pH 7.4) and 500 mM NaCl. Buffer exchange with 50 mM PBS (pH 7.5) was achieved by ultrafiltration with Amicon Ultra-15 (Merck). The activity of the respective purified enzyme was determined by measuring the absorbance decrease at 384 nm in the reaction mix (CHI in 50 mM PBS with 100 μM of either naringenin chalcone, hesperetin chalcone, eriodictyol chalcone, homoeriodictyol chalcone or 4-O-methyl butein at 25° C.).

[2] = Specific activity of purified CHI, absorbance decrease at 384 nm, homoeriodictyol chalcone
Protocol: as §1

[3] = Specific activity of purified CHI, absorbance decrease at 384 nm, 4-O-methyl butein
Protocol: as §1

[4] = Specific activity of purified CHI, absorbance decrease at 384 nm, naringenin chalcone
Protocol: as §1

[5] = Specific activity of purified CHI, absorbance decrease at 384 nm, eriodictyol chalcone
Protocol: as §1

Molecule	Specific activity, Hesperetin chalcone [1]	Specific activity, Homoeriodctiol chalcone [2]	Specific activity, 4-O-methyl butein [3]	Specific activity, Naringenin chalcone [4]	Specific activity, Eriodictyol chalcone [5]
CHIera: Chalcone isomerase from Eubacterium ramulus (protein, listed as Eubacterium ramulus) ADFKFEPMRSLIYVDCVSEDYRPKLQRWIYKVHIPDSISQFEPYVTKYAFYPSFPIPPQGDRFGYARMQLTEHHWLVSDLDPRLEIKAIAETFPMDVLVWQGQIPAAAHTDAQIDSDGDAGNAARKSNNAEGNPFIFAFLPMWWEKDLKGKGRTIEDGANYRFNMTIGFPEGVDKAEGEKWLFEKVVPILQAAPECTRVLASAVKKDINGCVMDWVLEIWFENQSGWYKVMVDDMKALEKPSWAQQDAFPFLKPYHNVCSAAVADYTPSNNLANYRGYITMR	31.5	44.5	0.1	270.0	90.7
CHI8: Chalcone isomerase from Roseburia sp., access no. SCJ10619.1 (protein, listed as Roseburia sp.) RSLIYVDVAKEQYRVKLNHWLYAVHVPESISKFRPYVSQYAFYNALPVPPLGEQFGTVRMQLTEHYWQVNPMDVSMAVNVFTETFPTEVLIWQGNMPENAIALNYEGDEARSAKVENCNPFVFAFLPISWEEDLKGAGRTMADGPNYRWNFALHYPDGVSVETGDQWFYEKFVPAFLEIPEATRMVTSKIIKEINDCPMDRVVEIWFEGPDQWSAAMEKAKSIEPPEWAQEETFPYLKPYQNIMGVFVADNISSDNLNNHRGYITMR	19.2	22.8	1.2	73.5	33.9
CHI6: Chalcone isomerase from Lachnoclostridium sp., access no. HCD45524.1 (protein, listed as Lachnoclostridium sp.) GTEFDPMRSFIYVDVIKEEYRHKLQHWLYFHHIPESISQFEPYCTKYAFYNALPVPEGGERFGTARMQITEHSWLVNIMDPALKVKAFQEYMPIEALKWQGTVPETAGDVLMSGDDARCTGGNNGCMPFVFAFCPMWWEEDVKGAGRTLTEGANYRWNFALTYPEGISKEEGDKWLFEEVFPYFEANNCCTRILTSKVRQEINGCPMYRVVEMWFTGPTAWHHLAVETADKIKSPSWAKDGDVFPYLKSGFEIRGAFVTDYPTCDAYSQYRGYIPRR	3.3	8.1	0.1	16.8	17.0
CHI9: Chalcone isomerase from Roseburia sp. OM02-15, access no. WP_118702262.1 (protein, Roseburia sp. OM02-15) GEITYQPLRSLIYVDCVKEEYRHKLQHWLYYYHAPESIAKFEPWVTKYAFYNALPTPPQGERFGTYRMQLTEHYWMVNPMSQESLVNSLNEYFPIDAMIWQGTLPENAKEDGFMADGEAARASGGDNGCPPFIFAFLPIFWEQDLKGAGRTMVDGPNYRWQFLVSYPEGHKEDGDQWMMNEVLPAFAAMPEVTRMMTSKVKKEINNCHMDRCVEMWFDGPEEWYHCAVENAASFKKPEWAEYDNFPYLRPQFQFASLFLTDIATSDNLKQYRGYLPMR	43.0	10.4	0.4	22.7	69.7
CHIera Mut1: Chalcone isomerase variant 1 from Eubacterium ramulus, genetically engineered (protein, listed as Eubacterium ramulus) MADFKFEPMRSLIYVDCVSEDYRPKLQRWIYKVHIPDSISKFEPYVTKYAFYPSFPIPPQGDRFGYARMQLTEHHWLVSELDPRLEINAIAETFPMDVLVWQGQIPAAAHTDAQIDSDGDAGRAAGKSNNAEGNPFIFAFLPMWWEKDLKGKGRTIEDGANYRFNMTIGFPEGVDKAEGEKWLFEKVVPILQAAPECTRVLASAVKKDINGCVMDWVLEIWFENQSGWYKVMVDDMKALEKPSWAQQDAFPFLKPYHNVCSAAVADYTPSNNLANYRGYITMR	93.2	23.7	0.4	32.6	59.5
CHIera Mut3: Chalcone isomerase variant 3 from Eubacterium ramulus, genetically engineered (protein, listed as Eubacterium ramulus) MADFKFEPMRSLIYVDCVSEDYRPKLQRWIYKVHIPDSISNFEPYVTKYAFYPSFPIPPQGDRFGYARMQLTEHHWLVSELDPRLEIKAIAETFPMDVLVWQGQIPAAAHTDAQIDSDGDAGRAAGKSNNAEGNPFIFAFLPMWWEKDLKGKGRTIEDGANYRFNMTIGFPEGVDKAEGEKWLFEKVVPILQAAPECTRVLASAVKKDINGCVMDWVLEIWFENQSGWYKVMVDDMKALEKPSWAQQDAFPFLKPYHNVCSAAVADYTPSNNLANYRGYITMR	55.1	13.0	0.3	16.7	39.2
CHIera Mut6: Chalcone isomerase variant 6 from Eubacterium ramulus, genetically engineered (protein, listed as Eubacterium ramulus) MADFKFEPMRSLIYVDCVSEDYRPKLQRWIYKVHIPDSISNFEPYVTKYAFYPSFPIPPQGDRFGYARMQLTEHHWLVSELDPRLEIRAIAETFPMDVLVWQGQIPAAAHTDAQIDSDGDAGDAARKSNNAEGNPFIFAFLPMWWEKDLKGKGRTIEDGANYRFNMTIGFPEGVDKAEGEKWLFEKVVPILQAAPECTRVLASAVKKDINGCVMDWVLEIWFENQSGWYKVMVDDMKALEKPSWAQQDAFPFLKPYHNVCSAAVADYTPSNNLANYRGYITMR	30.3	20.0	0.4	17.1	52.4
CHIera Mut13: Chalcone isomerase variant 13 from Eubacterium ramulus, genetically engineered (protein, listed as Eubacterium ramulus) MADFKFEPMRSLIYVDCVSEDYRPKLQRWIYKVHIPDSISKFEPYVTKYAFYPSFPIPPQGDRFGYARMQLTEHHWLVSPLDPRLEINAIAETFPMDVLVWQGQIPAAAHTDAQIDSDGDADDAARKSNNAEGNPFIFAFLPMWWEKDLKGKGRTIEDGANYRFNMTIGFPEGVDKAEGEKWLFEKVVPILQAAPECTRVLASAVKKDINGCVMDWVLEIWFENQSGWYKVMVDDMKALEKPSWAQQDAFPFLKPYHNVCSAAVADYTPSNNLANYRGYITMR	107.1	33.6	1.4	28.0	28.0
CHIera Mut8: Chalcone isomerase variant 8 from Eubacterium ramulus, genetically engineered (protein, listed as Eubacterium ramulus) MADFKFEPMRSLIYVDCVSEDYRPKLQRWIYKVHIPDSISKFEPYVTKYAFYPSFPIPPQGDRFGYARMQLTEHHWLVSPLDPRLEINAIAETFPMDVLVWQGQIPAAAHTDAQIDSDGDAGEAARKSNNAEGNPFIFAFLPMWWEKDLKGKGRTIEDGANYRFNMTIGFPEGVDKAEGEKWLFEKVVPILQAAPECTRVLASAVKKDINGCVMDWVLEIWFENQSGWYKVMVDDMKALEKPSWAQQDAFPFLKPYHNVCSAAVADYTPSNNLANYRGYITMR	83.9	21.2	0.5	25.6	49.0
CHIera Mut5: Chalcone isomerase variant 5 from Eubacterium ramulus, genetically engineered (protein, listed as Eubacterium ramulus) MADFKFEPMRSLIYVDCVSEDYRPKLQRWIYKVHIPDSISKFEPYVTKYAFYPSFPIPPQGDRFGYARMQLTEHHWLVSPLDPRLEINAIAETFPMDVLVWQGQIPAAAHTDAQIDSDGDAGRAAKKSNNAEGNPFIFAFLPMWWEKDLKGKGRTIEDGANYRFNMTIGFPEGVDKAEGEKWLFEKVVPILQAAPECTRVLASAVKKDINGCVMDWVLEIWFENQSGWYKVMVDDMKALEKPSWAQQDAFPFLKPYHNVCSAAVADYTPSNNLANYRGYITMR	4.5	8.8	0.1	8.0	13.5
